Kd, koff and kon data for 33 molecules are collected here from patent US20210340231A1 (FAPON BIOTECH, published 2021).

Where a chain is given by its changes, count along the chain named.

B1: Mutation 1-10 (antibody, V domains shown)
VH: EVQLQQSGAELVKPGASVKLSCTASGFNIKDYFMHWMKQRTEQGLDWIGRIDPEDAETRYAPEFQGKATITADTSSNTAYLQLSTLTSEDTAVYYCARYYSSYLPFVYWGQGTLVTASA
VL: DVVMTQTPLSLSVSLGDQASISCRSSQSIIYSNRHTYLHWYLQKPGQSPKLLIFQLSNRFSGVPDRFSGSGSGTDFTLKINRVEAEDLGVYFCSQSTHLPYTFGSGTKLEIKR
notes: built as for Mutation 1
B2: Mutation 1-18 (antibody, V domains shown)
VH: B1 VH with R59K, L104I
VL: B1 VL with I30L, L56I, Y101F
notes: built as for Mutation 1
B3: Mutation 1-36 (antibody, V domains shown)
VH: B1 VH with I29L, F33Y, A56G
VL: B1 VL with L99I
notes: built as for Mutation 1
B4: Mutation 1-33 (antibody, V domains shown)
VH: B1 VH with I29L, F33Y, R59K, L104V
VL: B1 VL with I29L, L56V, L99I, Y101F
notes: built as for Mutation 1
B5: Mutation 1-46 (antibody, V domains shown)
VH: B1 VH with I29L, L104I
VL: B1 VL with I29L, L56I, L99I, Y101F
notes: built as for Mutation 1
B6: Mutation 1-22 (antibody, V domains shown)
VH: B1 VH with A56G, L104V
VL: B1 VL with L56V
notes: built as for Mutation 1
B7: Mutation 1-15 (antibody, V domains shown)
VH: B1 VH with F33Y, A56G, L104V
VL: B1 VL with L56V, L99I
notes: built as for Mutation 1
B8: Mutation 1-13 (antibody, V domains shown)
VH: B1 VH with I29L, F33Y, L104V
VL: B1 VL with I29L, L56V, Y101F
notes: built as for Mutation 1
B9: Mutation 1-25 (antibody, V domains shown)
VH: B1 VH with I29L, F33Y, A56G, L104I
VL: B1 VL with L56I
notes: built as for Mutation 1
B10: Mutation 1-17 (antibody, V domains shown)
VH: B1 VH with I29L, F33Y
VL: B1 VL with L99I
notes: built as for Mutation 1
B11: Mutation 1-40 (antibody, V domains shown)
VH: B1 VH with I29L, F33Y, A56G, R59K, L104I
VL: B1 VL with I29L, I30L, L56I, Y101F
notes: built as for Mutation 1
B12: Mutation 1-26 (antibody, V domains shown)
VH: B1 VH with A56G, R59K
VL: B1 VL with I30L, Y101F
notes: built as for Mutation 1
B13: Mutation 1-29 (antibody, V domains shown)
VH: B1 VH with I29L, F33Y, A56G, R59K, L104V
VL: B1 VL with I29L, I30L, L56V
notes: built as for Mutation 1
B14: Mutation 1-48 (antibody, V domains shown)
VH: B1 VH with A56G, L104I
VL: B1 VL with L56I
notes: built as for Mutation 1
B15: Mutation 1-53 (antibody, V domains shown)
VH: B1 VH with F33Y, R59K
VL: B1 VL with L99I
notes: built as for Mutation 1
B16: Mutation 1-20 (antibody, V domains shown)
VH: B1 VH with I29L, A56G, R59K, L104V
VL: B1 VL with I29L, L56V, L99I, Y101F
notes: built as for Mutation 1
B17: Mutation 1-49 (antibody, V domains shown)
VH: B1 VH with F33Y
VL: B1 VL with I30L, L99I
notes: built as for Mutation 1
B18: Mutation 1-41 (antibody, V domains shown)
VH: B1 VH with F33Y, A56G, L104I
VL: B1 VL with I30L, L56I, L99I
notes: built as for Mutation 1
B19: Mutation 1-42 (antibody, V domains shown)
VH: B1 VH with I29L, A56G, R59K
VL: B1 VL with I29L, I30L
notes: built as for Mutation 1
B20: Mutation 1-47 (antibody, V domains shown)
VH: B1 VH with I29L, F33Y, R59K, L104V
VL: B1 VL with I29L, I30L, L56V, Y101F
notes: built as for Mutation 1
B21: Mutation 1-28 (antibody, V domains shown)
VH: B1 VH with I29L, R59K
VL: B1 VL with I29L, Y101F
notes: built as for Mutation 1
B22: Mutation 1-43 (antibody, V domains shown)
VH: B1 VH with I29L, F33Y, L104V
VL: B1 VL with L56V, L99I
notes: built as for Mutation 1
B23: Mutation 1-32 (antibody, V domains shown)
VH: B1 VH with I29L, A56G, L104I
VL: B1 VL with I30L, L56I, Y101F
notes: built as for Mutation 1
B24: Mutation 1-16 (antibody, V domains shown)
VH: B1 VH with I29L, L104I
VL: B1 VL with I29L, I30L, L56I
notes: built as for Mutation 1
B25: Mutation 1-12 (antibody, V domains shown)
VH: B1 VH with I29L, A56G, R59K
VL: B1 VL with I30L
notes: built as for Mutation 1
B26: Mutation 1-19 (antibody, V domains shown)
VH: B1 VH with F33Y, A56G
VL: B1 VL with I29L, L99I, Y101F
notes: built as for Mutation 1
B27: Mutation 1-27 (antibody, V domains shown)
VH: B1 VH with F33Y, L104I
VL: B1 VL with I29L, L56I, L99I
notes: built as for Mutation 1
B28: Mutation 1-35 (antibody, V domains shown)
VH: B1 VH with F33Y
VL: B1 VL
notes: built as for Mutation 1
B29: Mutation 1-21 (antibody, V domains shown)
VH: B1 VH with I29L, F33Y, R59K
VL: B1 VL with I29L, I30L, Y101F
notes: built as for Mutation 1
B30: Mutation 1-30 (antibody, V domains shown)
VH: B1 VH
VL: B1 VL with L99I, Y101F
notes: built as for Mutation 1
B31: Mutation 1-51 (antibody, V domains shown)
VH: B1 VH with I29L, F33Y, A56G
VL: B1 VL with I29L
notes: built as for Mutation 1
B32: Mutation 1-45 (antibody, V domains shown)
VH: B1 VH with F33Y, A56G, R59K, L104V
VL: B1 VL with I29L, L56V, L99I, Y101F
notes: built as for Mutation 1
B33: Mutation 1-39 (antibody, V domains shown)
VH: B1 VH with I29L, A56G, L104V
VL: B1 VL with I29L, L56V
notes: built as for Mutation 1

T1 sequence (P19429 2-210 limits assumed): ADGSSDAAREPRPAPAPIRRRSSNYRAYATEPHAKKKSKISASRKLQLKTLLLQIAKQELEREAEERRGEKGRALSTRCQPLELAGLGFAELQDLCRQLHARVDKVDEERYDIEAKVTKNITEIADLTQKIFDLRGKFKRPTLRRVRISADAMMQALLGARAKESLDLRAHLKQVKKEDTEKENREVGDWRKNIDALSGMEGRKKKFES

The assay addresses T1, CTNI quality control recombinant protein (PK2-CTNI-1, 170120, produced by the applicant) (human, UniProt P19429 2-210, limits assumed).
T1 construct: also called cardiac troponin I
Nature of the assay: AMC sensor kinetics, antibody captured, cTnI analyte. How it is done: Using the AMC sensor, the purified antibody was diluted with PBST to 10 μg/ml, and the CTNI quality control recombinant protein (PK2-CTNI-1, 170120, produced by the applicant) was serially diluted with PBST to 400 nmol/ml, 200 nmol/ml, 100 nmol/ml, 50 nmol/ml, 25 nmol/ml, 12.5 nmol/ml, 6.25 nmol/ml, and 0 nmol/ml.
For the molecule B1, the Kd amounted to 0.922 nM, the koff stood at 0.000413 s⁻¹ and the kon amounted to 448000 M⁻¹ s⁻¹.
The corresponding values for B2 are 0.68 nM, 0.000282 s⁻¹ and 415000 M⁻¹ s⁻¹.
Take B3: the Kd was determined as 0.809 nM, the koff stood at 0.000452 s⁻¹ and the kon turned out to be 559000 M⁻¹ s⁻¹.
In the case of B4, the Kd is 0.986 nM, the koff turned out to be 0.000881 s⁻¹ and the kon worked out at 894000 M⁻¹ s⁻¹.
The corresponding values for B5 are 0.723 nM, 0.00027 s⁻¹ and 373000 M⁻¹ s⁻¹.
For the molecule B6, the dissociation constant (Kd) worked out at 0.725 nM, the off-rate (koff) is 0.000215 s⁻¹ and the kon worked out at 297000 M⁻¹ s⁻¹.
The corresponding values for B7 are 0.917 nM, 0.000245 s⁻¹ and 267000 M⁻¹ s⁻¹.
In the case of B8, the Kd amounted to 0.806 nM, the koff amounted to 0.000251 s⁻¹ and the kon was 311000 M⁻¹ s⁻¹.
On to B9, for which the Kd worked out at 0.97 nM, the koff worked out at 0.000659 s⁻¹ and the kon was found to be 679000 M⁻¹ s⁻¹.
The corresponding values for B10 are 0.722 nM, 0.000565 s⁻¹ and 782000 M⁻¹ s⁻¹.
The corresponding values for B11 are 0.818 nM, 0.000164 s⁻¹ and 200000 M⁻¹ s⁻¹.
Consider B12, for which the Kd is 0.692 nM, the koff amounted to 0.00023 s⁻¹ and the association rate constant (kon) was 333000 M⁻¹ s⁻¹.
B13: the Kd was 0.698 nM, the koff turned out to be 0.000115 s⁻¹ and the kon worked out at 165000 M⁻¹ s⁻¹.
For B14, in that order: 0.956 nM, 0.00065 s⁻¹ and 680000 M⁻¹ s⁻¹.
B15: the Kd turned out to be 0.721 nM, the koff turned out to be 0.000243 s⁻¹ and the kon worked out at 337000 M⁻¹ s⁻¹.
In the case of B16, the Kd stood at 0.945 nM, the koff turned out to be 0.000158 s⁻¹ and the kon came to 167000 M⁻¹ s⁻¹.
The corresponding values for B17 are 0.538 nM, 0.000298 s⁻¹ and 553000 M⁻¹ s⁻¹.
B18: the Kd came out at 0.723 nM, the koff turned out to be 0.000393 s⁻¹ and the kon was found to be 544000 M⁻¹ s⁻¹.
With B19, the Kd came out at 0.347 nM, the koff came to 0.00018 s⁻¹ and the kon came to 520000 M⁻¹ s⁻¹.
For B20, in that order: 0.81 nM, 0.000507 s⁻¹ and 626000 M⁻¹ s⁻¹.
On to B21, for which the Kd was found to be 0.189 nM, the koff was 0.000101 s⁻¹ and the kon is 536000 M⁻¹ s⁻¹.
In the case of B22, the Kd was determined as 0.651 nM, the koff was determined as 7.75e-05 s⁻¹ and the kon was 119000 M⁻¹ s⁻¹.
As for B23, the Kd worked out at 0.509 nM, the koff came to 8.4e-05 s⁻¹ and the kon stood at 165000 M⁻¹ s⁻¹.
As to B24, the Kd was determined as 0.662 nM, the koff was found to be 0.000101 s⁻¹ and the kon was determined as 152000 M⁻¹ s⁻¹.
For B25, in that order: 0.834 nM, 0.000258 s⁻¹ and 309000 M⁻¹ s⁻¹.
With B26, the Kd turned out to be 0.487 nM, the koff amounted to 0.000191 s⁻¹ and the kon is 393000 M⁻¹ s⁻¹.
The corresponding values for B27 are 0.85 nM, 0.000844 s⁻¹ and 993000 M⁻¹ s⁻¹.
For B28, in that order: 0.574 nM, 0.000276 s⁻¹ and 480000 M⁻¹ s⁻¹.
Turning to B29, the Kd came out at 0.676 nM, the koff is 0.000477 s⁻¹ and the kon amounted to 705000 M⁻¹ s⁻¹.
In the case of B30, the Kd was determined as 0.669 nM, the koff amounted to 0.000362 s⁻¹ and the kon stood at 541000 M⁻¹ s⁻¹.
Consider B31, for which the Kd is 0.765 nM, the koff came out at 7.54e-05 s⁻¹ and the kon was determined as 98600 M⁻¹ s⁻¹.
Turning to B32, the Kd worked out at 0.168 nM, the koff was 3.24e-05 s⁻¹ and the kon amounted to 193000 M⁻¹ s⁻¹.
For B33, in that order: 0.756 nM, 0.000469 s⁻¹ and 620000 M⁻¹ s⁻¹.

By Kd is commonly meant the equilibrium constant for the complex coming apart. A word on the koff: it is the first-order rate constant of dissociation. Broadly, the kon is the second-order rate constant of association.
